Test results reported in paper PMC12637021, “Talin–tensin3 interactions regulate fibrillar adhesion formation and tensin3 phase separation” (The Journal of Cell Biology, 2025).

How the values were obtained:
[1] = system: TNS3KO cells; assay: FN fibrils, rescue of TNS3KO cells; type: cell-based, human; settings: vs TNS3-WT; IST9 antibody; 40 × 40 μm squares; n = 56 (WT) and 54 (L702E) cells
Method: (§1) Cells were fixed in 4% paraformaldehyde (PFA, Sigma-Aldrich), which had been prewarmed to 37°C for 15 min before being washed three times with PBS. For immunofluorescence staining, cells were permeabilized with 0.5% Triton X-100 (Sigma-Aldrich) at room temperature for 5 min before being washed three times with PBS. Blebbistatin (Tocris Bioscience) was diluted in dimethyl sulfoxide (Sigma-Aldrich) and used at a final concentration of 50 μM. […]
To analyze the FN fibrils, the images were background-subtracted (rolling ball), before 40 × 40 μm square boxes were applied for particle analysis to count FN fibrils larger than 0.2 μm^2. The FN coverage was calculated by dividing the area covered by FN fibrils by the total area of the box (1,600 μm^2).

[2] = system: U2OS TNS3KO cells; assay: vinculin-positive FAs on VN; type: cell-based, human; settings: TNS3-WT vs TNS3-L702E; VN-coated, serum-free; n = 74 (WT) and 51 (L702E) cells
Method: as §1
Analysis of cell adhesion sites, FN fibrils, and LLPS condensates was performed using FIJI/ImageJ (version 1.54f) software ([Schindelin et al., 2012]). […] Prior to adhesion quantification, the images were background-subtracted using a rolling ball algorithm, followed by thresholding of adhesion sites and Analyse Particles functions in FIJI/ImageJ to quantify adhesions. Adhesion sites with sizes between 0.4 and 10 μm^2 were counted, except for adhesions in blebbistatin-treated cells, which were counted with sizes between 0.2 and 4 μm^2. […]

[3] = system: NIH3T3 cells; assay: condensates on soft vs stiff PDMS, NIH3T3 cells; type: cell-based, mouse; settings: 1.5 kPa vs 28 kPa FN-coated PDMS, overnight
Method: Imaging dishes equipped with 40 µm-thick PDMS substrates (1.5 and 28 kPa) were purchased from ibidi. PDMS dishes were coated with 30 μg/ml FN for 1 h, followed by three washes with PBS. Dishes were incubated with DMEM for 10 min to equilibrate before cells were plated and incubated overnight at 37°C.
To establish a correlation between tensin3 expression and condensation formation, a maximum intensity Z-projection was performed on Z-stack images of NIH3T3 cells (step depth 0.2 μm). The integrated fluorescence intensity was measured by normalizing the mean pixel intensity of each cell to the average of all values in cells expressing mCh-TNS3. To measure the condensate coverage in NIH3T3 cells, the images were background-subtracted (rolling ball) and then thresholded. This was followed by the Analyse Particles function in FIJI/ImageJ to select round condensate structures (circularity 0.7–1.0) ([Bussi et al., 2023]; [Dumelie et al., 2024]) with a size larger than 0.1 μm^2. The same settings were applied to quantify the number of condensates in NIH3T3 and HFF cells.

[4] = system: NIH3T3 cells; assay: client protein recruitment to tensin3 condensates; type: cell-based, mouse; settings: TNS3-L702E condensates
Source text: Since the observed tensin3 condensates were derived from adhesion sites in a talin-regulated mechanosensitive manner, we wondered whether these condensates contain other adhesion components or signaling molecules. To address this question, we examined a selection of cell–matrix adhesion proteins that have been reported by others to be present in LLPS condensates. These proteins include LIMD1 ([Wang et al., 2021]), kindlin2 ([Hsu et al., 2023]), talin ([Hsu et al., 2023]; [Litschel et al., 2024]), KANK ([Guo et al., 2023]), tensin1 ([Lee et al., 2023]), vinculin ([Litschel et al., 2024]), and GIT1 ([Zhu et al., 2020]). We added the actin regulatory RhoGAP DLC1 to this selection, as it is known to bind tensin ([Liao et al., 2006]; [Shih et al., 2015]), and the RNA regulatory protein GIGYF1, which we had previously identified alongside many of the aforementioned proteins in tensin BioID datasets ([Atherton et al., 2022]). We also added stress granule components G3BP1 ([Tourrière et al., […]]) and TDP-43 ([Colombrita et al., 2009]). These proteins were either co-expressed as fluorescently tagged proteins (Fig. S4 I) or, where antibodies were available, probed endogenously in cells that formed GFP-TNS3 condensates (Fig. 8 A).
Cells were fixed in 4% paraformaldehyde (PFA, Sigma-Aldrich), which had been prewarmed to 37°C for 15 min before being washed three times with PBS. For immunofluorescence staining, cells were permeabilized with 0.5% Triton X-100 (Sigma-Aldrich) at room temperature for 5 min before being washed three times with PBS. Blebbistatin (Tocris Bioscience) was diluted in dimethyl sulfoxide (Sigma-Aldrich) and used at a final concentration of 50 μM. The following primary antibodies were diluted in 1% bovine serum albumin (BSA, Sigma-Aldrich): mouse anti-α5 integrin (SNAKA51, 1:100, NBP2-50146; Novus Biologicals), rat anti-β1 integrin (9EG7, 1:200; 553715; BD Biosciences), mouse anti-FN (IST-9, 1:100, ab6328; Abcam), rabbit anti-tensin3 (1:200, HPA055338; Atlas), mouse anti-EEA1 (1:500, 68065-1-IG; Proteintech), mouse anti-LAMP1 (1:200, ab320851; Abcam), mouse anti-paxillin (349, 1:400, mab3060; Sigma-Aldrich), rabbit anti-talin1 (1:200, 82856-4-RR; Proteintech), mouse anti-vinculin (hVin1, 1:500, V9264; Sigma-Aldrich), rabbit anti-KANK2 (1:100, HPA015643; Sigma-Aldrich), rabbit anti-kindlin2 (1:100, 11453-1-AP; Proteintech), rabbit anti-GIT1 (1:200, 26247-1-AP; Proteintech), mouse anti-phosphotyrosine (4G10, 1:200, 05-321X; Sigma-Aldrich), rabbit anti-G3BP1 (1:600, 13057-2-AP; Proteintech), rabbit anti-TDP43 (1:400, 10782-2-AP; Proteintech), and rabbit anti-GIGYF1 (1:400, ab121784; Abcam). […]

B1: TNS3-L702E: tensin3 carrying the L702E point mutation that blocks the interaction with talin (protein, UniProt Q68CZ2 1-1445, looked up, variant L702E)
Tensin-3: MEEGHGLDLTYITERIIAVSFPAGCSEESYLHNLQEVTRMLKSKHGDNYLVLNLSEKRYDLTKLNPKIMDVGWPELHAPPLDKMCTICKAQESWLNSNLQHVVVIHCRGGKGRIGVVISSYMHFTNVSASADQALDRFAMKKFYDDKVSALMQPSQKRYVQFLSGLLSGSVKMNASPLFLHFVILHGTPNFDTGGVCRPFLKLYQAMQPVYTSGIYNVGPENPSRICIVIEPAQLLKGDVMVKCYHKKYRSATRDVIFRLQFHTGAVQGYGLVFGKEDLDNASKDDRFPDYGKVELVFSATPEKIQGSEHLYNDHGVIVDYNTTDPLIRWDSYENLSADGEVLHTQGPVDGSLYAKVRKKSSSDPGIPGGPQAIPATNSPDHSDHTLSVSSDSGHSTASARTDKTEERLAPGTRRGLSAQEKAELDQLLSGFGLEDPGSSLKEMTDARSKYSGTRHVVPAQVHVNGDAALKDRETDILDDEMPHHDLHSVDSLGTLSSSEGPQSAHLGPFTCHKSSQNSLLSDGFGSNVGEDPQGTLVPDLGLGMDGPYERERTFGSREPKQPQPLLRKPSVSAQMQAYGQSSYSTQTWVRQQQMVVAHQYSFAPDGEARLVSRCPADNPGLVQAQPRVPLTPTRGTSSRVAVQRGVGSGPHPPDTQQPSPSKAFKPRFPGDQVVNGAGPELSTGPSPGSPTLDIDQSIEQENRLILELDPTFEPIPTHMNALGSQANGSVSPDSVGGGLRASSRLPDTGEGPSRATGRQGSSAEQPLGGRLRKLSLGQYDNDAGGQLPFSKCAWGKAGVDYAPNLPPFPSPADVKETMTPGYPQDLDIIDGRILSSKESMCSTPAFPVSPETPYVKTALRHPPFSPPEPPLSSPASQHKGGREPRSCPETLTHAVGMSESPIGPKSTMLRADASSTPSFQQAFASSCTISSNGPGQRRESSSSAERQWVESSPKPMVSLLGSGRPTGSPLSAEFSGTRKDSPVLSCFPPSELQAPFHSHELSLAEPPDSLAPPSSQAFLGFGTAPVGSGLPPEEDLGALLANSHGASPTPSIPLTATGAADNGFLSHNFLTVAPGHSSHHSPGLQGQGVTLPGQPPLPEKKRASEGDRSLGSVSPSSSGFSSPHSGSTISIPFPNVLPDFSKASEAASPLPDSPGDKLVIVKFVQDTSKFWYKADISREQAIAMLKDKEPGSFIVRDSHSFRGAYGLAMKVATPPPSVLQLNKKAGDLANELVRHFLIECTPKGVRLKGCSNEPYFGSLTALVCQHSITPLALPCKLLIPERDPLEEIAESSPQTAANSAAELLKQGAACNVWYLNSVEMESLTGHQAIQKALSITLVQEPPPVSTVVHFKVSAQGITLTDNQRKLFFRRHYPVNSVIFCALDPQDRKWIKDGPSSKVFGFVARKQGSATDNVCHLFAEHDPEQPASAIVNFVSKVMIGSPKKV
modifications: mCherry or GFP tag
[1]
  fewer FN fibrils: over 70%
[2]
  formation of vinculin-positive FA: no difference
[3]
  condensates on soft vs stiff substrate: no difference in condensate formation on soft versus stiff substrates
[4]
  localization of talin1/2, KANK1/2 and vinculin into condensates: failed to localize into the tensin3 condensates
  presence of tensin1, LIMD1, DLC1, and GIGYF1 in condensates: remained present
